# Legend:
# [1] = Circular dichroism of Val^8-GLP-1 / GLP-1 secondary structure with bound DSS; type: physicochemical
# From the text: A slightly larger form of Val^8-GLP-1 with DSS molecule(s) bound to it was observed on size-exclusion chromatography (SEC) and the altered secondary structure was noted by circular dichroism experiments (CD).
# [2] = Solution clarity of m-cresol-preserved Val^8-GLP-1 solution with other surfactants, Example 4; type: physicochemical; settings: m-cresol about 3 mg/ml; for clarity of Val^8-GLP-1 solution with added surfactant: 10 μl surfactant in 500 μL of 1 mg/ml peptide, ambient temperature about 3 hours; for solution appearance: without any additives
# Protocol: A formulation of the invention was prepared by dissolving Val^8-GLP-1(7-37)OH at 1 mg/ml in an aqueous solution containing 16 mg/ml glycerin and 10 mM sodium tribasic phosphate. The solution was adjusted to about pH 8.0 using 2N HCl.
# (§1) The preservative m-cresol was prepared at a concentration of 100 mg/ml in absolute ethanol.
# Various formulation excipients listed herein were added to 500 μL aliquots of the Val^8-GLP-1(7-37)OH solution in 3-ml glass vials. After stirring for about 45 minutes at ambient temperature, 15.8 μl of a 100 mg/ml m-cresol solution in absolute ethanol was added to give a m-cresol concentration of about 3 mg/ml.
# Without any additives, the Val^8-GLP-1 solution becomes hazy at both ambient temperature and at 4° C.
# [3] = test system: beagle dogs clamped at an elevated glycemic level (200 mg/dl); assay: Hyperglycemic clamp, glucose infusion rate after subcutaneous injection; type: in vivo; settings: formulation containing DSS
# Protocol: A portion of the formulation from Example 2 was injected subcutaneously into beagle dogs that were clamped at an elevated glycemic level (200 mg/dl). 3 nmoles/kg of Val^8-GLP-1 were injected into each animal. Glucose infusion rates needed to maintain hyperglycemia were measured for 2.5 hours after the injections and compared to injections of a vehicle control solution.
# [4] = Storage stability (solution clarity, HPLC purity) of preserved Val^8-GLP-1(7-37)OH formulation with DSS 2:1, Example 2; type: physicochemical; settings: for solution appearance: DSS 2:1, m-cresol about 3.15 mg/ml; for HPLC purity after storage: DSS 2:1, m-cresol
# Protocol: A formulation of the invention was prepared by dissolving Val^8-GLP-1(7-37)OH at about 1.0 mg/ml in an aqueous solution containing 16 mg/ml glycerin and 10 mM sodium tribasic phosphate. The solution was adjusted to about pH 8.0 using 5N HCl. The solution was then filtered through 0.2μ and 0.02μ filters. The peptide concentration was quantified by ultraviolet (UV) analysis at 280 nm.
# 6.5 ml of the Val^8-GLP-1 solution was added to 1.62 mg of solid DSS, which had been dried from a 100 mg/ml solution in absolute ethanol, to give a 2:1 molar ratio of DSS to Val^8-GLP-1. After gently stirring 15 minutes at ambient temperature the solution was added to 20.5 mg of m-cresol, which had been dried from a 100 mg/ml solution in absolute ethanol, to give a m-cresol concentration of about 3.15 mg/ml. After stirring 15 minutes at ambient temperature, the solution was adjusted to about pH 7.7 and passed through a 0.2μ filter. Portions of this formulation were stored at 4° C. and at ambient temperature.
# After 18 weeks, the formulations maintained at 4° C. and at ambient temperature were examined. Both solutions were clear.
# [5] = Storage stability (solution clarity, HPLC purity) of m-cresol-preserved Val^8-GLP-1(7-37)OH formulations with DSS, Example 1; type: physicochemical; settings: for time solution remained clear: 4° C.; for HPLC purity after storage: 6 weeks at 4° C.
# Protocol: A formulation of the invention was prepared by dissolving Val^8-GLP-1(7-37)OH at 1 mg/ml in an aqueous solution containing 16 mg/ml glycerin and 10 mM sodium tribasic phosphate. The solution was adjusted to about pH 8.1 using 1N HCl.
# as §1
# Sodium docusate (DSS) was prepared at a concentration of 20 mg/ml in water with gentle warming on a hot plate.
# To each of 500 μL aliquots of the Val^8-GLP-1(7-37)OH solution in 3-ml glass vials were added 0, 3.3, 6.6 or 16.5 μL of the DSS solution followed by 15.8 μL of the preservative m-cresol solution. After gentle mixing of the components in the vials by hand swirling the pH of each clear solution was-adjusted to pH 7.8. Replicate samples were incubated at 4° C., ambient temperature, and 37° C. Within 4 hours at ambient temperature, the samples containing 0 or 3.3 μL of the DSS solution had become hazy due to peptide denaturation.
# After incubation for 16 hours at 37° C., all four types of samples were clear. The solutions were then incubated at 4° C. Again, the solutions containing 0 or 3.3 μL of the DSS solutions became, and remained, hazy.
# The solutions containing 6.6 μL or 16.5 μL of the DSS solution, which correspond to 2:1 and 10:1 molar ratios DSS to Val^8-GLP-1(7-37)OH, respectively, remained clear at 4° C. for at least 6 weeks.
substance,measurement,setting,value
GLP-1(7-37) (HAEGTFTSDVSSYLEGEAAKEFIAWLVKGRG; listed as Homo sapiens),reversion to alpha-helix conformation,"[1]; GLP-1-DSS mixture, 2-day dialysis, CD study",did not revert
Tween-40,clarity of Val^8-GLP-1 solution with added surfactant,[2],preserved solution clarity
Tween-80,clarity of Val^8-GLP-1 solution with added surfactant,[2],preserved solution clarity
Val^8-GLP-1(7-37)OH,insulinotropic-like activity versus Val^8-GLP-1 in phosphate buffer solution (PBS formulation),[3],comparable in potency
same,solution appearance,"[4]; pH about 7.7, 18 weeks at 4° C.",clear
same,solution appearance,"[4]; pH about 7.7, 18 weeks at ambient temperature",clear
same,HPLC purity after storage,[4]; 18 weeks at 4° C.,98.3%
same,HPLC purity after storage,[4]; 18 weeks at ambient temperature,90.8%
same,solution appearance,"[5]; 0 μL DSS solution, incubated at 4° C. after 16 hours at 37° C.",hazy
same,solution appearance,"[5]; 0 μL DSS solution, m-cresol, pH 7.8, within 4 hours at ambient temperature",hazy
same,solution appearance,"[5]; 3.3 μL DSS solution, incubated at 4° C. after 16 hours at 37° C.",hazy
same,solution appearance,"[5]; 3.3 μL DSS solution, m-cresol, pH 7.8, within 4 hours at ambient temperature",hazy
same,time solution remained clear,[5]; 6.6 μL DSS solution (2:1 molar ratio DSS to peptide),at least 6 weeks
same,HPLC purity after storage,[5]; 6.6 μL DSS solution (2:1 molar ratio),98.3%
same,time solution remained clear,[5]; 16.5 μL DSS solution (10:1 molar ratio DSS to peptide),at least 6 weeks
same,HPLC purity after storage,[5]; 16.5 μL DSS solution (10:1 molar ratio),97.2%
same,solution stability on addition of DSS,"[5]; DSS 2:1 molar vs. peptide, isotonic, pH 7.8, m-cresol",dramatically improved
same,solution appearance,"[5]; all four sample types (0, 3.3, 6.6, 16.5 μL DSS solution), after incubation for 16 hours at 37° C.",clear
same,solution appearance,[2]; 4° C.,hazy
same,solution appearance,[2]; ambient temperature,hazy
same,secondary structure upon binding of DSS,[1]; circular dichroism,converted from mostly alpha-helix to mostly a beta sheet
